From the RNAGym collection of RNA variant scans (doi:10.7554/elife.90254)

B1: LINE1-full (parent)
chain: UACGUAGGUGGUUUUCCCCUGAUAGUGCUAAGGGGGCCUGGAAGUUUGGACUGGGCAGAGCUCAACACAGCGUGGCAAAGUGGCUGUGGCUAGACUGCCUCUCUGGAUUCCUCGUCACUCAGCAGGGCAUCUCUGAGAGAAAUGCC

Variants of: B1
Test: self-cleavage, relative activity (ratio to wild type); higher = more cleavage; in vitro, sequencing; the parent is a self-cleaving ribozyme

Variant | self-cleavage
AACGUAGGUGGUUUUCCCCUGAUAGUGCUAAGGGGGCCUGGAAGUUUGGACUGGGCAGAGCUCAACACAGCGUGGCAAAGUGGCUGUGGCUAGACUGCCUCUCUGGAUACCUCGUCACUCAGCAGGGCAUCUCUGAGAGAAAUGCC [U1A U109A] | 1.56
AACGUAGGUGGUUUUCCCCUGAUAGUGCUAAGGGGGCCUGGAAGUUUGGACUGGGCAGAGCUCAACACAGCGUGGCAAAGUGGCUGUGGCUAGACUGCCUCUCUGGAUCCCUCGUCACUCAGCAGGGCAUCUCUGAGAGAAAUGCC [U1A U109C] | 1.05
AACGUAGGUGGUUUUCCCCUGAUAGUGCUAAGGGGGCCUGGAAGUUUGGACUGGGCAGAGCUCAACACAGCGUGGCAAAGUGGCUGUGGCUAGACUGCCUCUCUGGAUUCCUCGUCACUCGGCAGGGCAUCUCUGAGAGAAAUGCC [U1A A121G] | 1.73
AACGUAGGUGGUUUUCCCCUGAUAGUGCUAAGGGGGCCUGGAAGUUUGGACUGGGCAGAGCUCAACACAGCGUGGCAAAGUGGCUGUGGCUAGACUGCCUCUCUGGAUUCCUCGUCACUCAGCGGGGCAUCUCUGAGAGAAAUGCC [U1A A124G] | 1.16
AACGUAGGUGGUUUUCCCCUGAUAGUGCUAAGGGGGCCUGGAAGUUUGGACUGGGCAGAGCUCAACACAGCGUGGCAAAGUGGCUGUGGCUAGACUGCCUCUCUGGAUUCCUCGUCACUCAGCAGGGCAUCUCUGAGAGAAGUGCC [U1A A142G] | 1.19
AACGUAGGUGGUUUUCCCCUGAUAGUGCUAAGGGGGCCUGGAAGUUUGGACUGGGCAGAGCUCAACACAGCGUGGCAAAGUGGCUGAGGCUAGACUGCCUCUCUGGAUUCCUCGUCACUCAGCAGGGCAUCUCUGAGAGAAAUGCC [U1A U87A] | 0.13
AACGUAGGUGGUUUUCCCCUGAUAGUGCUAAGGGGGCCUGGAAGUUUGGACUGGGCAGAGCUCAGCACAGCGUGGCAAAGUGGCUGUGGCUAGACUGCCUCUCUGGAUUCCUCGUCACUCAGCAGGGCAUCUCUGAGAGAAAUGCC [U1A A65G] | 0.07
AACGUAGGUGGUUUUCCCCUGUUAGUGCUAAGGGGGCCUGGAAGUUUGGACUGGGCAGAGCUCAACACAGCGUGGCAAAGUGGCUGUGGCUAGACUGCCUCUCUGGAUUCCUCGUCACUCAGCAGGGCAUCUCUGAGAGAAAUGCC [U1A A22U] | 0.41
AACGUAGGUGGUUUUCCCCUGAUAGUGCUAAGGGGGCCUGGAAGUUUGGACUGGGCAGAGCUCAACACAGCGUGGCAAAGUGGCUGUGGCUAGACUGCCUCUCUGGAUUCCUCGUCACUCAGCAGGGCAUCUCUGGGAGAAAUGCC [U1A A136G] | 1.71
AACGUAGGUGGUUUUCCCCUGAUAGUGCUAAGGGGGCCUGGAAGUUUGGACUGGGCAGAGCUCAACACAGCGUGGCAAAGUGGCUGUGGCUAGACUGCCUCUCUGGAUUCCUCGUCACUCAGCAGGGCGUCUCUGAGAGAAAUGCC [U1A A129G] | 1.47
AACGUAGGUGGUUUUCCCCUGAUAGUGCUAAGGGGGCCUGGAAGUUUGGACUGGGCAGAGCUCAACACAGCGUGGCAAAGUGGCUGUGGCUAGACUGCCUCUCUGGAUUCCUCGUCGCUCAGCAGGGCAUCUCUGAGAGAAAUGCC [U1A A117G] | 1.37
AACGUAGGUGGUUUUCCCCUGAUAGUGCCAAGGGGGCCUGGAAGUUUGGACUGGGCAGAGCUCAACACAGCGUGGCAAAGUGGCUGUGGCUAGACUGCCUCUCUGGAUUCCUCGUCACUCAGCAGGGCAUCUCUGAGAGAAAUGCC [U1A U29C] | 0.84
AACGUAGGUGGUUAUCCCCUGAUAGUGCUAAGGGGGCCUGGAAGUUUGGACUGGGCAGAGCUCAACACAGCGUGGCAAAGUGGCUGUGGCUAGACUGCCUCUCUGGAUUCCUCGUCACUCAGCAGGGCAUCUCUGAGAGAAAUGCC [U1A U14A] | 0.89
AACGUAGGUGGUUCUCCCCUGAUAGUGCUAAGGGGGCCUGGAAGUUUGGACUGGGCAGAGCUCAACACAGCGUGGCAAAGUGGCUGUGGCUAGACUGCCUCUCUGGAUUCCUCGUCACUCAGCAGGGCAUCUCUGAGAGAAAUGCC [U1A U14C] | 1.71
AACGUAGGUGGUUUUCCCCCGAUAGUGCUAAGGGGGCCUGGAAGUUUGGACUGGGCAGAGCUCAACACAGCGUGGCAAAGUGGCUGUGGCUAGACUGCCUCUCUGGAUUCCUCGUCACUCAGCAGGGCAUCUCUGAGAGAAAUGCC [U1A U20C] | 1.64
AAUGUAGGUGGUUUUCCCCUGAUAGUGCUAAGGGGGCCUGGAAGUUUGGACUGGGCAGAGCUCAACACAGCGUGGCAAAGUGGCUGUGGCUAGACUGCCUCUCUGGAUUCCUCGUCACUCAGCAGGGCAUCUCUGAGAGAAAUGCC [U1A C3U] | 0
AACGUAGGUGGUUUCCCCCUGAUAGUGCUAAGGGGGCCUGGAAGUUUGGACUGGGCAGAGCUCAACACAGCGUGGCAAAGUGGCUGUGGCUAGACUGCCUCUCUGGAUUCCUCGUCACUCAGCAGGGCAUCUCUGAGAGAAAUGCC [U1A U15C] | 2.17
AACGUAGGUGGUUUUCCCCUGAUAGUGCUCAGGGGGCCUGGAAGUUUGGACUGGGCAGAGCUCAACACAGCGUGGCAAAGUGGCUGUGGCUAGACUGCCUCUCUGGAUUCCUCGUCACUCAGCAGGGCAUCUCUGAGAGAAAUGCC [U1A A30C] | 1.44
AACGUAGGUGGUUUUCCCCUGAUAGUGCUAUGGGGGCCUGGAAGUUUGGACUGGGCAGAGCUCAACACAGCGUGGCAAAGUGGCUGUGGCUAGACUGCCUCUCUGGAUUCCUCGUCACUCAGCAGGGCAUCUCUGAGAGAAAUGCC [U1A A31U] | 1.11
AACGUAGGUGGUUUUCCCCUGAUAGUGCUAAGGGGGCCUGGAGGUUUGGACUGGGCAGAGCUCAACACAGCGUGGCAAAGUGGCUGUGGCUAGACUGCCUCUCUGGAUUCCUCGUCACUCAGCAGGGCAUCUCUGAGAGAAAUGCC [U1A A43G] | 0.81

Variant | self-cleavage
AACGUAGGUGGUUUUCCCCUGAUAGUGCUAAGGGGGCCUGGAAGUUUGGACUGGGCAGAGCGCAACACAGCGUGGCAAAGUGGCUGUGGCUAGACUGCCUCUCUGGAUUCCUCGUCACUCAGCAGGGCAUCUCUGAGAGAAAUGCC [U1A U62G] | 0.36
AACGUAGGUGGUUUUCCCCUGAUAGUGCUAAGGGGGCCUGGAAGUUUGGACUGAGCAGAGCUCAACACAGCGUGGCAAAGUGGCUGUGGCUAGACUGCCUCUCUGGAUUCCUCGUCACUCAGCAGGGCAUCUCUGAGAGAAAUGCC [U1A G54A] | 1.05
AACGUAGGUGGUUUUCCCCUGAUAGUGCUAAGGGGGCCUGGAAGUUUGGACUGGGCAGAGCUCAACACGGCGUGGCAAAGUGGCUGUGGCUAGACUGCCUCUCUGGAUUCCUCGUCACUCAGCAGGGCAUCUCUGAGAGAAAUGCC [U1A A69G] | 1.2
AACGUAGGUGGUUUUCCCCUGAUAGUGCUAAGGGGGCCCGGAAGUUUGGACUGGGCAGAGCUCAACACAGCGUGGCAAAGUGGCUGUGGCUAGACUGCCUCUCUGGAUUCCUCGUCACUCAGCAGGGCAUCUCUGAGAGAAAUGCC [U1A U39C] | 1.2
AACGUAGGUGGUUUUCCCCUGAUAGUGCUAAGGCGGCCUGGAAGUUUGGACUGGGCAGAGCUCAACACAGCGUGGCAAAGUGGCUGUGGCUAGACUGCCUCUCUGGAUUCCUCGUCACUCAGCAGGGCAUCUCUGAGAGAAAUGCC [U1A G34C] | 1.08
AACGUAGGUGGUUUUCCCCUGAUAGUGCUAAGGGGGCCUGGAAGUUUGGACUGGGCAGAGCUCAACACAGCAUGGCAAAGUGGCUGUGGCUAGACUGCCUCUCUGGAUUCCUCGUCACUCAGCAGGGCAUCUCUGAGAGAAAUGCC [U1A G72A] | 1.55
AACGUAGGUGGUUUUCCCCUGAUAGUGCUAAGGGGGCCUGGAAGUUUGGACUGGGCAGAGCUCAACACAGCGUGGCGAAGUGGCUGUGGCUAGACUGCCUCUCUGGAUUCCUCGUCACUCAGCAGGGCAUCUCUGAGAGAAAUGCC [U1A A77G] | 1.66
AACGUAGGUGGCUUUCCCCUGAUAGUGCUAAGGGGGCCUGGAAGUUUGGACUGGGCAGAGCUCAACACAGCGUGGCAAAGUGGCUGUGGCUAGACUGCCUCUCUGGAUUCCUCGUCACUCAGCAGGGCAUCUCUGAGAGAAAUGCC [U1A U12C] | 1.4
AACGUAGGUGGUUUUCCCCUGAUAGUGCUAAGGGGGGCUGGAAGUUUGGACUGGGCAGAGCUCAACACAGCGUGGCAAAGUGGCUGUGGCUAGACUGCCUCUCUGGAUUCCUCGUCACUCAGCAGGGCAUCUCUGAGAGAAAUGCC [U1A C37G] | 0.74
AGCGUAGGUGGUUUUCCCCUGAUAGUGCUAAGGGGGCCUGGAAGUUUGGACUGGGCAGAGCUCAACACAGCGUGGCAAAGUGGCUGUGGCUAGACUGCCUCUCUGGAUUCCUCGUCACUCAGCAGGGCAUCUCUGAGAGAAAUGCC [U1A A2G] | 1.2
AACGUAGGUGGUUUUCCCCUGAUAGGGCUAAGGGGGCCUGGAAGUUUGGACUGGGCAGAGCUCAACACAGCGUGGCAAAGUGGCUGUGGCUAGACUGCCUCUCUGGAUUCCUCGUCACUCAGCAGGGCAUCUCUGAGAGAAAUGCC [U1A U26G] | 1.19
AACGUAGGUGGUUUUCCCCUGAUAGUGCUAAGGGGGCCUGGAAGUUUGGACUGGGCAGAGCUCAACACAGCGUGGCAAAGUGGCUGUGGCUUGACUGCCUCUCUGGAUUCCUCGUCACUCAGCAGGGCAUCUCUGAGAGAAAUGCC [U1A A92U] | 0.32
AACGUAGGUGGUUUUCCCCUGAUAGUGCUAAGGGGGCCUGGAAGUUUGGACUGGGCAGAGCUCAACACAGCGUGGCACAGUGGCUGUGGCUAGACUGCCUCUCUGGAUUCCUCGUCACUCAGCAGGGCAUCUCUGAGAGAAAUGCC [U1A A78C] | 1.65
AACGUAGGUGGUUUUCCCCUGAUAGUGCUAAGGGGGCCUGGAAGUUUGGACUGGGCAGAGCUCAACACAGCGUGGCAGAGUGGCUGUGGCUAGACUGCCUCUCUGGAUUCCUCGUCACUCAGCAGGGCAUCUCUGAGAGAAAUGCC [U1A A78G] | 0.86
AACGUAGGUGGUUUUCCCCUGAUAGUGCUAAGGGGGCCUGGAAGUUUGGACUGGGCAGAGCUCAACACAGCGUGGCAAAGUGGCUGUGGCUAGACUGCCCCUCUGGAUUCCUCGUCACUCAGCAGGGCAUCUCUGAGAGAAAUGCC [U1A U100C] | 1.18
AACGUAGGUGGUUUUCCCCUGAUAGUGCUAAGGGGGCCUGGAAGUUUGGACUGGGCAGAGCUCAACACAGCGUGGCAAAGUGGCUGUGGCUAGACUGCCUCUCUGGAUUCCUCGUCACUCAGCAGGGCAUCUCUGAGAGAGAUGCC [U1A A141G] | 1.43
AACGUAGGUGGUUUUCCCCUGAUAGUGCUAAGGGGGCCUGGAAGUUUGGACUGGGCAGUGCUCAACACAGCGUGGCAAAGUGGCUGUGGCUAGACUGCCUCUCUGGAUUCCUCGUCACUCAGCAGGGCAUCUCUGAGAGAAAUGCC [U1A A59U] | 0.91
AACGUAGGUGGUUUUCCCCUGAUAGUGCUAAGUGGGCCUGGAAGUUUGGACUGGGCAGAGCUCAACACAGCGUGGCAAAGUGGCUGUGGCUAGACUGCCUCUCUGGAUUCCUCGUCACUCAGCAGGGCAUCUCUGAGAGAAAUGCC [U1A G33U] | 0.96
AACGUAGGAGGUUUUCCCCUGAUAGUGCUAAGGGGGCCUGGAAGUUUGGACUGGGCAGAGCUCAACACAGCGUGGCAAAGUGGCUGUGGCUAGACUGCCUCUCUGGAUUCCUCGUCACUCAGCAGGGCAUCUCUGAGAGAAAUGCC [U1A U9A] | 1.15
